The data set concerns the molecule itself. Put plainly: cryo-EM structure; helical tubes of Atg18, 20 uM in tube buffer (20 mM HEPES, 100 mM KAc, 1 mM DTT, pH 7.2); segmented helical reconstruction, rise 19.4 A, rotation 70.0 degrees.

B1: Atg18-PR72AA (Atg2 binding mutant) (natural protein, Saccharomyces cerevisiae, UniProt P43601 1-500, looked up)
chain: MSDSSPTINFINFNQTGTCISLGTSKGFKIFNCEPFGKFYSEDSGGYAIVEMLFSTSLLALVGIGDQPALSAARLRIINTKKHSIICEVTFPTSILSVKMNKSRLVVLLQEQIYIYDINTMRLLHTIETNPNPRGLMAMSPSVANSYLVYPSPPKVINSEIKAHATTNNITLSVGGNTETSFKRDQQDAGHSDISDLDQYSSFTKRDDADPTSSNGGNSSIIKNGDVIVFNLETLQPTMVIEAHKGEIAAMAISFDGTLMATASDKGTIIRVFDIETGDKIYQFRRGTYATRIYSISFSEDSQYLAVTGSSKTVHIFKLGHSMSNNKLDSDDSNMEEAAADDSSLDTTSIDALSDEENPTRLAREPYVDASRKTMGRMIRYSSQKLSRRAARTLGQIFPIKVTSLLESSRHFASLKLPVETNSHVMTISSIGSPIDIDTSEYPELFETGNSASTESYHEPVMKMVPIRVVSSDGYLYNFVMDPERGGDCLILSQYSILMD
notes: Atg18, Saccharomyces cerevisiae, Uniprot ID P43601, with P72 and R73 changed to alanines; also called Atg18-P72R73; Atg18-PR72R73; source: E. coli BL21(DE3), purified (Ni-NTA, TEV cleavage, second Ni-NTA, gel filtration Superdex 200); not shown: 6xHis, N-terminal, cleaved
For B1, the binding result is “binds”.
